Laboratory results as given in patent US20120009199A1 (AstraZeneca / MedImmune, published 2012).

Molecular target: the molecule itself
Assay: stopped-flow kinetics with light scattering detection, dilution from 10 to 1 mg/ml at 4 C, self-association
From the text: High molecular weight forms are known to cause increased intensity of light scattering compared to monomer. Dissociation of the MabA present in the HPSEC shoulder, (apparent molecular weight of 213 kDa) would, therefore, be expected to result in a decrease in light scattering.

B1: MabA (antibody, human IgG2, V domains shown)
VH: QVQLVESGGGLVKPGGSLRLSCAASGFTFSDYYMNWIRQAPGKGLEWVSYISSSGSIIYYADSVKGRFTISRDNAKNSLYLQMNSLRAEDTAVYYCAREGRIAARGMDVWGQGTTVTVSS
VL: DIQMTQSPSSLSASVGDRVTITCRPSQSFSRYINWYQQKPGKAPKLLIYAASSLVGGVPSRFSGSGSGTDFTLTISSLQPEDFATYYCQQTYSNPPITFGQGTRLEIK
notes: Full-length human IgG2; also called anti-PDGFR-alpha antibody; human IgG2 anti-PDGFR-alpha antibody
apparent half-life of dissociation of the self-associated species: 14 s
